Molecular target: EMILIN1 gC1q domain, wild type (recombinant)
Test: SDS-PAGE without boiling; purified gC1q (WT or mutant), incubated or not with NE at 37 °C, Laemmli buffer added, loaded on 4-20% gels without boiling to keep the trimer, Coomassie staining; trimer to monomers

Substance: EMILIN1 gC1q domain, wild type (recombinant) (domain or fragment)
- stoichiometry N: 3
